Data from patent US20200399314A1 (MEDIKINE, published 2020).
Bridge positions count the residues as written; N and C are the ends. Ends that are not written are not given here.

Target: T1, human IL-2Rα subunit (human, UniProt P01589 22-213, limits assumed)
T1 construct: also called CD25
T1 sequence (looked up): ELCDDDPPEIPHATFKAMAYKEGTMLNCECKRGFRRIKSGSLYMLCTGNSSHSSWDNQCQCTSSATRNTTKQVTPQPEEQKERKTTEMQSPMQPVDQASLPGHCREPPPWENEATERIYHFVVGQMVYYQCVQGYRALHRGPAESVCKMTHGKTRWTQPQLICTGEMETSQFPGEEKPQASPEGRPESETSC

VKCKLVNPGSGWACHF (disulfide 3-14 (inferred)) [SEQ ID NO 208] was tested, and the IC50 was < 100 µM.

With AGCMLLKPGLYWECIF [SEQ ID NO 179] the IC50 was < 100 µM.

TCTVHRIGLAEWECV (disulfide 2-14 (inferred)) [SEQ ID NO 204] was tested, and the IC50 was < 100 µM.

In the case of TRCRLLKLGSLWECFG [SEQ ID NO 195], the IC50 is reported as < 100 µM.

For ACWRSWRYPTRTFCS [SEQ ID NO 198], the IC50 was < 100 µM.

In the case of RGCTLAWEDSWVCIF (disulfide 3-13 (inferred)) [SEQ ID NO 162], the IC50 is reported as < 100 µM.

With FVPWPEYFLQIM [SEQ ID NO 12] the IC50 was < 100 µM.

For KVICGWDGCR [SEQ ID NO 20], the IC50 was < 100 µM.

For GCMLTRGKFWWECI [SEQ ID NO 173], the IC50 was < 100 µM.

In the case of GPCRLSNPGTGWECIF (disulfide 3-14 (inferred)) [SEQ ID NO 182], the IC50 is reported as < 100 µM.

SACTPNWTGRWWECVF (disulfide 3-14 (inferred)) [SEQ ID NO 190] was tested, and the IC50 was < 100 µM.

For KGCTLQNPGSGWVCLF [SEQ ID NO 183], the IC50 was < 100 µM.

With VGCSLVWTDRWECIF (disulfide 3-13 (inferred)) [SEQ ID NO 156] the IC50 was < 100 µM.

With KCRLRQMSRGGWECL [SEQ ID NO 199] the IC50 was < 100 µM.

GCTLSWNQGWWHCV [SEQ ID NO 172] was tested, and the IC50 was < 100 µM.

With FVLCGLQGCRGS [SEQ ID NO 19] the IC50 was < 100 µM.

With RGCMLRLQPELACVF [SEQ ID NO 147] the IC50 was < 100 µM.

In the case of ASCSLVWQDSWVCIF [SEQ ID NO 164], the IC50 is reported as < 100 µM.

PSCRLWNPGFGWECIF [SEQ ID NO 188] was tested, and the IC50 was < 100 µM.

For VRCRVLYPGQMAVCVS [SEQ ID NO 211], the IC50 was < 100 µM.

For TRMCFDDPGWHSCPVV [SEQ ID NO 136], the IC50 was < 100 µM.

In the case of NHCTLSKTYPWVCVF (disulfide 3-13 (inferred)) [SEQ ID NO 145], the IC50 is reported as < 100 µM.

QACQLVWLDSWVCIF [SEQ ID NO 155] was tested, and the IC50 was < 100 µM.

With FVPWDEYFLQIL [SEQ ID NO 15] the IC50 was < 100 µM.

VRCFMSEPGRVSYCTA [SEQ ID NO 209] was tested, and the IC50 was < 100 µM.

With TTVCDYHPGSRYCINE [SEQ ID NO 138] the IC50 was < 100 µM.

For QSCTLQRLGHLYQCWF [SEQ ID NO 189], the IC50 was < 100 µM.

FIPWDEYFKQVL [SEQ ID NO 11] was tested, and the IC50 was < 100 µM.

With RRCTLVFLDSWECIF (disulfide 3-13 (inferred)) [SEQ ID NO 161] the IC50 was < 100 µM.

With GRCHLVWSDRWECIF [SEQ ID NO 166] the IC50 was < 100 µM.

In the case of RGCSLVWSGSWECIF [SEQ ID NO 154], the IC50 is reported as < 100 µM.

With RGCSLVWAGSWECIF [SEQ ID NO 159] the IC50 was < 100 µM.

With FIPWEEYFSQLL [SEQ ID NO 13] the IC50 was < 100 µM.

In the case of FIPWPEYFSQLL [SEQ ID NO 14], the IC50 is reported as < 100 µM.

With LACILSKPGEHWECLF [SEQ ID NO 184] the IC50 was < 100 µM.

With GCSLMWQDGWWVCI [SEQ ID NO 171] the IC50 was < 100 µM.

With STCRMGNPGGVWGCYF (disulfide 3-14 (inferred)) [SEQ ID NO 193] the IC50 was < 100 µM.

VTCYRAVPGVEAYCFS [SEQ ID NO 212] was tested, and the IC50 was < 100 µM.

GCTLKWESPNWTCY [SEQ ID NO 169] was tested, and the IC50 was < 100 µM.

In the case of ATCMLRLLGDGWGCVF [SEQ ID NO 181], the IC50 is reported as < 100 µM.

SKCHLIVSGKFHECVF [SEQ ID NO 191] was tested, and the IC50 was < 100 µM.

In the case of GGCSLVWADSWVCIF [SEQ ID NO 148], the IC50 is reported as < 100 µM.

With THCLVQWPGPVVACRS [SEQ ID NO 194] the IC50 was < 100 µM.

For NTCKLFRSGNIWQCIF [SEQ ID NO 187], the IC50 was < 100 µM.

For WLPCDDYPGHGYCYSR (disulfide 4-13 (inferred)) [SEQ ID NO 140], the IC50 was < 100 µM.

For SRCSLVWADSWVCIF [SEQ ID NO 165], the IC50 was < 100 µM.

TRWCSLHPGVGECVTL [SEQ ID NO 137] was tested, and the IC50 was < 100 µM.

With NGCTLSFSGMSWTCVY (disulfide 3-14 (inferred)) [SEQ ID NO 185] the IC50 was < 100 µM.

With VRCRLARPGLTWECLS [SEQ ID NO 210] the IC50 was < 100 µM.

With SACQLKWDEGWTCLF [SEQ ID NO 144] the IC50 was < 100 µM.

In the case of RCRLQKAGGNTWECI [SEQ ID NO 201], the IC50 is reported as < 100 µM.

With SGCSLQWADGWVCIF (disulfide 3-13 (inferred)) [SEQ ID NO 157] the IC50 was < 100 µM.

With YASCTYLPGHRGCTLV [SEQ ID NO 139] the IC50 was < 100 µM.

In the case of ARCSLVWDEAWVCIF [SEQ ID NO 158], the IC50 is reported as < 100 µM.

TCRLKRSGPNSWECI [SEQ ID NO 203] was tested, and the IC50 was < 100 µM.

For SRCSLVWAENWVCIF [SEQ ID NO 160], the IC50 was < 100 µM.

For QRCNRSLLDALICQA [SEQ ID NO 146], the IC50 was < 100 µM.

SRCSLVWTDTWVCVF [SEQ ID NO 152] was tested, and the IC50 was < 100 µM.

GCVLQFSGVWWECV (disulfide 2-13 (inferred)) [SEQ ID NO 174] was tested, and the IC50 was < 100 µM.

With ARCSLHHTGSRYECIF [SEQ ID NO 180] the IC50 was < 100 µM.

In the case of SCTVRWDGDWWVCE [SEQ ID NO 170], the IC50 is reported as < 100 µM.

For NSCILSNPGLGWQCVF [SEQ ID NO 186], the IC50 was < 100 µM.

In the case of NCRVRHLPYPFWSCL [SEQ ID NO 200], the IC50 is reported as < 100 µM.

For RQFCLVSPGYEDCWFV [SEQ ID NO 135], the IC50 was < 100 µM.

In the case of RCTLRFDAQTGWECN [SEQ ID NO 202], the IC50 is reported as < 100 µM.

With RGCSLRFAEAWECIF [SEQ ID NO 163] the IC50 was < 100 µM.

With QRCQLSWSGGELGCMF (disulfide 3-14 (inferred)) [SEQ ID NO 178] the IC50 was < 100 µM.

For SRCTLVFDDSWVCVF [SEQ ID NO 153], the IC50 was < 100 µM.

In the case of SSCTLFNPGTGWTCVF [SEQ ID NO 192], the IC50 is reported as < 100 µM.
